In the RNAGym collection of RNA variant scans (doi:10.7554/elife.90254):

B1: LINE1-full (parent)
chain: UACGUAGGUGGUUUUCCCCUGAUAGUGCUAAGGGGGCCUGGAAGUUUGGACUGGGCAGAGCUCAACACAGCGUGGCAAAGUGGCUGUGGCUAGACUGCCUCUCUGGAUUCCUCGUCACUCAGCAGGGCAUCUCUGAGAGAAAUGCC

Variants of: B1
Assay: self-cleavage, relative activity (ratio to wild type); higher = more cleavage; in vitro, sequencing; the parent is a self-cleaving ribozyme
For C17U A67G, the self-cleavage was 0.34. Variant U15G U108C has a self-cleavage of 1.06. C18A A24G showed a self-cleavage of 1.11. In the case of C19U, the self-cleavage is reported as 1.21. C19A showed a self-cleavage of 0.97. Variant C19G has a self-cleavage of 0.35. C17U U39C gave a self-cleavage of 0.92. U20A A57U showed a self-cleavage of 0.11. In the case of U20A A57G, the self-cleavage is reported as 1. Variant C19U G74A has a self-cleavage of 1.12. U15C U104G gave a self-cleavage of 1.29. In the case of C18U A77U, the self-cleavage is reported as 1.11. With C18U A77G the self-cleavage was 1.91. U15C U62G gave a self-cleavage of 0.15. Work on C16A A142G yielded a self-cleavage of 0.86. Work on C17A U108C yielded a self-cleavage of 1.96. With U15G A138G the self-cleavage was 0.53. C19G G126A gave a self-cleavage of 0.49. Work on C16A U115C yielded a self-cleavage of 0.41. For C18A A22G, the self-cleavage was 0.7. U20A A79G showed a self-cleavage of 0.92. C19U A22G showed a self-cleavage of 1.18. For C18U G25A, the self-cleavage was 0.39. In the case of C18U U108C, the self-cleavage is reported as 0. Work on U20A C56U yielded a self-cleavage of 0.18. U20A U45C showed a self-cleavage of 1.36. C19G A42G gave a self-cleavage of 1.41. Variant U20C A31G has a self-cleavage of 1.16. U20C A31U gave a self-cleavage of 1.08. In the case of C19U C95U, the self-cleavage is reported as 0.43. Work on U20A A77G yielded a self-cleavage of 2.25. In the case of U20A A77U, the self-cleavage is reported as 1.14. U20A A77C gave a self-cleavage of 1.75. C16A A67G showed a self-cleavage of 1.02. In the case of C19A A77G, the self-cleavage is reported as 2.71. C19U U81A showed a self-cleavage of 1.05. Work on C16A U46C yielded a self-cleavage of 0.91. With U20A A59U the self-cleavage was 0.7. C16A U20A gave a self-cleavage of 1.64. Variant C19A U108C has a self-cleavage of 1.46. C17U A77U showed a self-cleavage of 0.36. For C19A A50G, the self-cleavage was 1.48. Variant C16A U52C has a self-cleavage of 0.69. For C17A U46C, the self-cleavage was 1.42. For U15C U112A, the self-cleavage was 1.64. U15C U112C gave a self-cleavage of 1.37. With C19U U130C the self-cleavage was 1.08. For C19A G32A, the self-cleavage was 0.91. With C19A C128U the self-cleavage was 1.08. With C18U U85G the self-cleavage was 0.23. C18U U85A showed a self-cleavage of 0.13. For C19A A78G, the self-cleavage was 1.53. With C16U U20A the self-cleavage was 1.02. C17U A42G showed a self-cleavage of 1.36. In the case of U15C U119A, the self-cleavage is reported as 1.5. Work on C16U yielded a self-cleavage of 1.12. C16A gave a self-cleavage of 0.96. Variant U20A U29A has a self-cleavage of 1.05. C16U A124G showed a self-cleavage of 0.58. Work on U20A A50U yielded a self-cleavage of 1.06. Work on U20A U102C yielded a self-cleavage of 1.46. In the case of C16U U91C, the self-cleavage is reported as 0.74. C17U A69G showed a self-cleavage of 0.4. In the case of C18U U134G, the self-cleavage is reported as 1.95. In the case of U20A A64G, the self-cleavage is reported as 0.46. With C19U A117U the self-cleavage was 1.28. For C19A A59G, the self-cleavage was 0.13. For U20A A136U, the self-cleavage was 1.38. Variant C16U G40U has a self-cleavage of 0.6. C18A U143C gave a self-cleavage of 0.56. In the case of C18A U73G, the self-cleavage is reported as 1.01. With C19U A65G the self-cleavage was 0.14. C17U A121G showed a self-cleavage of 1.53. In the case of U20A U26C, the self-cleavage is reported as 1.11. For C19U A77U, the self-cleavage was 1.3. For U20C A43U, the self-cleavage was 1.4. For U20C A43G, the self-cleavage was 1.35. Work on U20A G34A yielded a self-cleavage of 0.88. In the case of U20C A79G, the self-cleavage is reported as 1.5. In the case of U20C A79U, the self-cleavage is reported as 1.7. Variant U20C A78U has a self-cleavage of 1.86. With C16G C71G the self-cleavage was 0.42. For U20C A22G, the self-cleavage was 1.04. With U20C A22U the self-cleavage was 1.12. With C17G U91C the self-cleavage was 0.38. C19U A124U showed a self-cleavage of 0.76. Variant C16U A140U has a self-cleavage of 1.78. Variant C19A U26A has a self-cleavage of 1.16. Variant C19U U46C has a self-cleavage of 1. Variant C16U U132C has a self-cleavage of 1.12. Variant C17U U26A has a self-cleavage of 0.85. C17U U104C showed a self-cleavage of 1.33. Variant U15C U115C has a self-cleavage of 1.68. C18A U45A gave a self-cleavage of 1.06. Work on U20C A107U yielded a self-cleavage of 1.34. With U20C A107G the self-cleavage was 1.6. C17A A43G gave a self-cleavage of 0.89. For C18A A138G, the self-cleavage was 2.26. With C18A A138U the self-cleavage was 1.66. Work on U20A A69C yielded a self-cleavage of 0.06. Variant U20A A69U has a self-cleavage of 0.1. C19U U85C showed a self-cleavage of 0.21. Work on C17A A22G yielded a self-cleavage of 2.19. Variant U15G U96C has a self-cleavage of 0. In the case of U15G U96A, the self-cleavage is reported as 0.16. C18U A69C showed a self-cleavage of 0.07. For C17U U87C, the self-cleavage was 0.23. Variant C17U U87A has a self-cleavage of 0.11. In the case of C19U G32A, the self-cleavage is reported as 0.87. Work on C16A A136G yielded a self-cleavage of 0.57. Variant C18A U104A has a self-cleavage of 0.85. With C18A U96C the self-cleavage was 0.22. For C19U G114A, the self-cleavage was 1.28. Variant C17U A65U has a self-cleavage of 0.07. In the case of C17U A65G, the self-cleavage is reported as 0.18. U15C U85A showed a self-cleavage of 0.1. Work on C18A U132A yielded a self-cleavage of 1.38. Variant U20A U130A has a self-cleavage of 0.32. Work on U20A U130C yielded a self-cleavage of 1.45. For C16A U81A, the self-cleavage was 0.75. With U15G A50C the self-cleavage was 1.37. For C19G A77G, the self-cleavage was 2.07. C19U U102A gave a self-cleavage of 1.19. U20A U39C gave a self-cleavage of 0.93. Variant U15G U119A has a self-cleavage of 1.01. U15C U143C gave a self-cleavage of 1.29. In the case of U15G U46C, the self-cleavage is reported as 0.59. Work on U20A A129G yielded a self-cleavage of 0.97. Work on U20A A42U yielded a self-cleavage of 0.9. With C19U U47C the self-cleavage was 0.98. Work on U15C U130C yielded a self-cleavage of 1.19. In the case of C17U U47A, the self-cleavage is reported as 1.34. Work on C17U U143A yielded a self-cleavage of 0.85. Variant C17U U143C has a self-cleavage of 1.03. With C17U G49U the self-cleavage was 1.69. Work on U15G U47A yielded a self-cleavage of 1.16. In the case of U20C A65G, the self-cleavage is reported as 0.06. In the case of C19G U26C, the self-cleavage is reported as 1.2. Variant C18U A94G has a self-cleavage of 0.32. In the case of C16U C38U, the self-cleavage is reported as 1.06. U20C A59G showed a self-cleavage of 0.11. C18U U96A gave a self-cleavage of 0.08. C16U A138G showed a self-cleavage of 2.06. Variant C18U A30U has a self-cleavage of 0.14. C18G U115C gave a self-cleavage of 1.67. C17U A140U showed a self-cleavage of 1.11. With C19U G54A the self-cleavage was 0.57. Variant C18U C56U has a self-cleavage of 0.24. For U20A G127A, the self-cleavage was 1.1. For U15G A141G, the self-cleavage was 1. C17A A67G showed a self-cleavage of 0.56. For U20A U112C, the self-cleavage was 0.79. For U20A A43U, the self-cleavage was 1.46. With U20A C95A the self-cleavage was 0.09. For U20A C95U, the self-cleavage was 0.13. With C19U U143C the self-cleavage was 0.98. With U15C U134C the self-cleavage was 1.43. In the case of U20C A69G, the self-cleavage is reported as 0.66. In the case of U20C A69U, the self-cleavage is reported as 0.07. Variant U20A C145U has a self-cleavage of 1.13. U20A C37G gave a self-cleavage of 2.63. For U20A G126A, the self-cleavage was 1.28. In the case of U15G U132C, the self-cleavage is reported as 1.81. Variant C19A A142G has a self-cleavage of 1.3. C17G U108C showed a self-cleavage of 0.81. Work on C19U U45A yielded a self-cleavage of 1.43. C19U U45C gave a self-cleavage of 0.86.
